The series has as its system MS2 coat protein. The series is described as follows: apparent KD of MS2 coat protein; designed switch direction (-1 OFF switch, 1 ON switch): -1; higher = weaker reporter binding. The method in brief:
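On Illumina chips, designed RNA switches with common flanks were made by stalled E. coli RNA polymerase. Titrations with SNAP-549-labelled MS2 coat protein, doubling from 0.7 or 1.5 nM to 3 µM, were done with no input, with 200 uM small-molecule ligand, or with an oligonucleotide input. Apparent KD is the median per design over clusters, from curve fits of normalised cluster fluorescence.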

Setting [1] is: input ligand: microRNA oligo, concentration not stated.
[2] abbreviates: Eterna round: R95, input ligand: FMN 200 uM.
Where [3] appears, read: Eterna round: R95, input ligand: microRNA oligo, concentration not stated.
[4] abbreviates: Eterna round: R95, input ligand: none.

Take “GUCACCUCGGUGACAAAGCACAUGAGGAUCACCCAUGUAUGUGCUUGGAAACAAGCAUUUUGUUCGUCUUAUAAGAA [same principle] (Eterna round: R96, puzzle: Sensor v2, turn-off variant)”: the “apparent KD of MS2 coat protein” value (input ligand: FMN 200 uM) is 0.0227 µM, the “apparent KD of MS2 coat protein” value under setting [1] came to 0.0954 µM and the “apparent KD of MS2 coat protein” value (input ligand: none) is 0.0216 µM.

For the sequence “GAUGCACAUGAGGAUCACCCAUGUGAGGAUAUCAUUCCUAGAUCAGUCGGUCAGGAAAUGAGAAGGCGCCGGGA [Eternabot (L2) Solution 5] (Eterna round: R97, puzzle: Exclusion 1)”, the “apparent KD of MS2 coat protein” value came to 0.0286 µM (input ligand: FMN 200 uM) and 0.0236 µM (input ligand: none).

Turning to “GACAUCGCAGGAUAUUAGAGUUUUUACAUGAGGAUCACCCAUGUUAAUUGGGUUAAUGUCUAAGAAGGGCGAUGUC [JR_EX5_Sub015] (Eterna round: R97, puzzle: Exclusion 5)”, the “apparent KD of MS2 coat protein” value by setting is: (input ligand: FMN 200 uM) 0.113 µM; (input ligand: none) 0.0494 µM.

For the sequence “GGAGAGAGAGGAUAUGGAGGUUGGAACAUGAGGAUCACCCAUGUUAAACCUCAUGACCGACUAGAAGGCUCAGUCC [AK-MS2ROC-r4-exclusion5-9.1] (Eterna round: R97, puzzle: Exclusion 5)”, the “apparent KD of MS2 coat protein” value reads like this: (input ligand: FMN 200 uM) 0.0178 µM; (input ligand: none) 0.0189 µM.

For “ACUUAUAGAGGAUAUACAGAAUAUUACAUGAGGAUCACCCAUGUUCUUCAAUGUAUAUUUGUAGAAGGCUAAGGAA [EX-5 Malc#7] (Eterna round: R96, puzzle: Exclusion 5)”, under setting [1], the “apparent KD of MS2 coat protein” value worked out at 0.0466 µM.

With “AUGCCCUGAGGAUAUCUCAUCCCGCACAUGAGGAUCACCCAUGUUCUUCUCCGGGUUUCGAGAGAAGGCAGGCCUA [Armus4] (Eterna round: R97, puzzle: Exclusion 5)”, the “apparent KD of MS2 coat protein” value runs as follows: (input ligand: FMN 200 uM) 0.0794 µM; (input ligand: none) 0.249 µM.

Consider “AAAUAGCUAGAGGAUAUCGGAUAGGAUUUAUUACGAGAAGGUUAGACAUGAGGAUCACCCAUGUUCUGUUGGGA [EX6 #21] (Eterna round: R97, puzzle: Exclusion 6)”, for which the “apparent KD of MS2 coat protein” value is, setting by setting: (input ligand: FMN 200 uM) 0.0869 µM; (input ligand: none) 0.0346 µM.

As to “CCGGAAGUACAGGAUAUCGUAACGGAUACGUUACGAGAAGGGUAUACAUGAGGAUCACCCAUGUGUCCUACCGG [Mat - Exclusion 6 - Eli Mod - D95] (puzzle: Exclusion 6)”, the “apparent KD of MS2 coat protein” value by setting is: under setting [2], 0.0278 µM; under setting [3], 0.026 µM; under setting [4], 0.0271 µM.

With “AAAUACCGGUGAGGAUAUUUAUAAUAGAACUUUAUGAUAUACAUGAGGAUCACCCAUGUUACUUUAAAGAAGGCAUCGGAUAAA [Mat - Exclusion NG 2 - Mod of JL - D89] (Eterna round: R96, puzzle: Exclusion NG 2)”, the “apparent KD of MS2 coat protein” value under setting [1] was 0.0139 µM.

Take “AAAUAACAAGCAAUAAACCACAUGAGGAUCACCCAUGUAAAGGGUGAAUCGUCCACCCAAAAAAAAAAAAAAAAAUA [Mat - Sensor v2 - Eli mod - 147] (Eterna round: R96, puzzle: Sensor v2, turn-off variant)”: the “apparent KD of MS2 coat protein” value was determined as 0.0433 µM (input ligand: FMN 200 uM), 0.178 µM under setting [1] and 0.0523 µM (input ligand: none).

“UUUAAUUUUUUUUUUUUACAAGCUUUUUGCUCGUCUUAUACAUGAGGAUCACCCAUGUAAGUGGAGGGUAAAUUAUC [JMF 87] (puzzle: Sensor v3, turn-off variant 2)”: the “apparent KD of MS2 coat protein” value reads like this: under setting [2], 0.0194 µM; under setting [3], 0.0394 µM; under setting [4], 0.0152 µM.

Regarding “GCCGAUUAAGUGAGGAUAUACCUAUGGAUACAUAGGUAGAAGGCACAUGAGGAUCACCCAUGUUCCUUAACGGC [Fiskers BMX 4 - 7] (puzzle: Brourd's mod of Exclusion 4)”, the “apparent KD of MS2 coat protein” value under setting [3] turned out to be 0.0105 µM.

“ACAUGAGGAUCACCCAUGUCUGGCUGGUCCGUCUCGGCUGUCGAGGAUAUGGCUCGGUGUCCGCGCUAGAAGGCGGGAGCUGGU [Aenatbe mod 79] (Eterna round: R96, puzzle: Exclusion NG 3)”: the “apparent KD of MS2 coat protein” value amounted to 0.195 µM (input ligand: FMN 200 uM), 0.045 µM under setting [1] and 0.0775 µM (input ligand: none).

Take “GUUUGACAUGAGGAUCACCCAUGUAAGGAUAUACGAGUAGCUACUAGGUAGUUAGUAUGUAGAAGGUACGUGUU [EX1 #65] (Eterna round: R97, puzzle: Exclusion 1)”: the “apparent KD of MS2 coat protein” value reads like this: (input ligand: FMN 200 uM) 0.0504 µM; (input ligand: none) 0.0403 µM.

In the case of “CUUCACCCACCAGAGCUCACCCACAUACCUACUCAGGUGACAUGAGGAUCACCCAUGUUUUUUGCCCGUCUUAUCUU [Vexebedi] (puzzle: Sensor v3, turn-off variant 2)”, the “apparent KD of MS2 coat protein” value runs as follows: under setting [2], 0.0283 µM; under setting [3], 0.216 µM; under setting [4], 0.0304 µM.

Regarding “UAUACACAUGAGGAUCACCCAUGUGAGGAUAUGUAAAAAAAACCGACGGUUUUUUUUUACAGAAGGCACAUAUA [JR_Exclusion1_Sub026] (puzzle: Exclusion 1)”, the “apparent KD of MS2 coat protein” value under setting [3] was determined as 0.0525 µM.

Take “GUAAUUAAUGUAGGAUAUGCAAGGCGAACCUAAGCAGAAGGACAUGAGGAUCACCCAUGUAUUGCGGUCUGCGUUCAGAUCGCU [salish99_ExNG1_r4_009] (Eterna round: R96, puzzle: Exclusion NG 1)”: the “apparent KD of MS2 coat protein” value under setting [1] was 0.0154 µM.

Consider “GUCAGCUCGUCAGGAUAUAUAUAUACAUGAGGAUCACCCAUGUUAGAUCAGCUUCGGCAGUAUAUAUAGAAGGGACGAGCUGAC [ENG2/15-B1] (Eterna round: R96, puzzle: Exclusion NG 2)”, for which the “apparent KD of MS2 coat protein” value was 0.153 µM (input ligand: FMN 200 uM), 0.059 µM under setting [1] and 0.0725 µM (input ligand: none).

Consider “CAAUGACAUGAGGAUCACCCAUGUGAGGAUAUGGAGCGCGACCGCGCGGUCGCGUACACCAGAAGGCGCAGGAA [1st #69] (Eterna round: R97, puzzle: Exclusion 1)”, for which the “apparent KD of MS2 coat protein” value is, setting by setting: (input ligand: FMN 200 uM) 0.0597 µM; (input ligand: none) 0.0294 µM.

With “AAGAAGCAAGGAUAUACAGAGGAGAGGAAAGCAAGAGGAGGACAUGAGGAUCACCCAUGUAGAAGGUGCAGAGA [JR_Exclu2_Sub019] (puzzle: Exclusion 2)”, the “apparent KD of MS2 coat protein” value under setting [2] is 0.0674 µM, the “apparent KD of MS2 coat protein” value under setting [3] worked out at 0.0688 µM and the “apparent KD of MS2 coat protein” value under setting [4] came out at 0.0635 µM.

As for “CUCUUGUCAGGAUAUUAUGGACGAAGGCAGGGCCGCGUCAGUGAGAAGGGACAUGAGGAUCACCCAUGUAAAAU [Riintesoa] (puzzle: Exclusion 4)”, under setting [3], the “apparent KD of MS2 coat protein” value is 0.0739 µM.

On to “UUUUAGUCAGGAUAUACAUGAGGAUCACCCAUGUAAAAUUUUAAUUUAAUUUGAAGGUGUAGAAGGGACAAUUU [Ex3 #39] (Eterna round: R97, puzzle: Exclusion 3)”, for which the “apparent KD of MS2 coat protein” value by setting is: (input ligand: FMN 200 uM) 0.0227 µM; (input ligand: none) 0.0358 µM.

Turning to “CUGGUCCGAGGAUAUAUGAUGUGAAACAUGAGGAUCACCCAUGUAAUAUUAUGGAAGUAAAUAGAAGGCGGACUAG [Mat - Exclusion 5 - JL mod - D34] (puzzle: Exclusion 5)”, the “apparent KD of MS2 coat protein” value was found to be 0.0286 µM under setting [2], 0.0495 µM under setting [3] and 0.037 µM under setting [4].

“GCACGGAGUGUAGGAUAUUAGUGCGAUUAGCACUGAGAAGGACAUGAGGAUCACCCAUGUUCCUCAAUAACAUACCUUCCGUGC [Eli exng1 - 042] (Eterna round: R96, puzzle: Exclusion NG 1)”: the “apparent KD of MS2 coat protein” value under setting [1] was 0.0095 µM.

On to “AAGAUACAUGAGGAUCACCCAUGUGAGGAUAUGAGCACGCCGGUGACGGUGAUAAGAAUCAGAAGGCACAAUGG [JL-ex1-4.32 salish99 mod] (Eterna round: R97, puzzle: Exclusion 1)”, for which the “apparent KD of MS2 coat protein” value is, setting by setting: (input ligand: FMN 200 uM) 0.151 µM; (input ligand: none) 0.327 µM.

With “GGUUGGCGAGGAUAUACAUGAGGAUCACCCAUGUGAGAAUAAAAAGUGAGGAAGAAAAGUAGAAGGCGCUGACG [Mat - Exclusion 3 - Mod of Salish D5] (puzzle: Exclusion 3)”, the “apparent KD of MS2 coat protein” value under setting [2] is 0.0765 µM, the “apparent KD of MS2 coat protein” value under setting [3] worked out at 0.0316 µM and the “apparent KD of MS2 coat protein” value under setting [4] was determined as 0.0363 µM.

Turning to “AGUAACUAUCACGAAAGUGAUAGUUACACAAGCAGUGAAACAUGAGGAUCACCCAUGUCCUCAAUUGCUCGUCUUAU [Sensor 3 - 31] (puzzle: Sensor v3, turn-off variant 2)”, the “apparent KD of MS2 coat protein” value stood at 0.0478 µM under setting [2], 0.194 µM under setting [3] and 0.0496 µM under setting [4].

On to “UUCCUCAUAACAUGAGGAUCACCCAUGUAUUAUUUGAUAACUGAGGAUAUACUAAUAAUGUUUAUGUAGAAGGCAGAUACAGAU [JR_ExcNG3_Sub015] (Eterna round: R96, puzzle: Exclusion NG 3)”, for which the “apparent KD of MS2 coat protein” value (input ligand: FMN 200 uM) was determined as 0.623 µM, the “apparent KD of MS2 coat protein” value under setting [1] amounted to 0.0691 µM and the “apparent KD of MS2 coat protein” value (input ligand: none) is 0.0591 µM.

“AUAAUAAUAUAGGAUAUCGAAUUAAUUAUUUAACGAGAAGGAUGAACAUGAGGAUCACCCAUGUGGUAUCAUGG [Mat - Exclusion 6 - JL Mod - D34] (puzzle: Exclusion 6)”: the “apparent KD of MS2 coat protein” value by setting is: under setting [2], 0.255 µM; under setting [3], 0.244 µM; under setting [4], 0.317 µM.

In the case of “UAUGGUUAAGUCAGGAUAUACUAAUAGAAAUCUGAGUAGAAGGGACAUGAGGAUCACCCAUGUAUGGUAGUGUU [Ex4 #58] (Eterna round: R97, puzzle: Brourd's mod of Exclusion 4)”, the “apparent KD of MS2 coat protein” value turned out to be 0.0771 µM (input ligand: FMN 200 uM) and 0.0552 µM (input ligand: none).

For “UUUUUAUAUGAAGGAUAUACUUAACAUGAGGAUCACCCAUGUGGUGUUGUGAGUGAGUGAGUUUAGUAGAAGGUCAAGUAUUUG [JMF's solution 42] (Eterna round: R96, puzzle: Exclusion NG 2)”, the “apparent KD of MS2 coat protein” value (input ligand: FMN 200 uM) stood at 0.689 µM, the “apparent KD of MS2 coat protein” value under setting [1] was 0.204 µM and the “apparent KD of MS2 coat protein” value (input ligand: none) worked out at 0.342 µM.
